Data: the supplement of paper PMC9170038

Test system: MS2 coat protein
Assay: apparent KD of MS2 coat protein; designed switch direction (-1 OFF switch, 1 ON switch): -1; higher = weaker reporter binding
How it was run: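 Three titration conditions were used: no input, 200 uM small-molecule ligand, and an oligonucleotide input. In each, SNAP-549-labelled MS2 coat protein was raised from 0.7 or 1.5 nM, doubling, to 3 µM over designed RNA switches transcribed on Illumina chips by stalled E. coli RNA polymerase. Curve fits of normalised cluster fluorescence gave values whose per-design median over clusters is the apparent KD.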

[1] = Eterna round: R95, input ligand: microRNA oligo, concentration not stated
[2] = Eterna round: R95, input ligand: FMN 200 uM
[3] = Eterna round: R95, input ligand: none
[4] = input ligand: microRNA oligo, concentration not stated

| Sequence | apparent KD of MS2 coat protein (input ligand: FMN 200 uM) | apparent KD of MS2 coat protein (input ligand: none) | apparent KD of MS2 coat protein [1] | apparent KD of MS2 coat protein [2] | apparent KD of MS2 coat protein [3] | apparent KD of MS2 coat protein [4] |
| --- | --- | --- | --- | --- | --- | --- |
| GAUCACUGAGGAUAUACACAGAUACAAAGUAUCUGAUGGUGACAUGAGGAUCACCCAUGUAGAAGGCAGAGGUC [Omei Ex2 B7] (Eterna round: R97, puzzle: Exclusion 2) | 290 nM | 495 nM | – | – | – | – |
| GAUCAUGCAGGAUAUACAGUAACCAUGAAAACAUGGAUCAAACAUGAGGAUCACCCAUGUAGAAGGGCAUGAUC [Omei Ex2 A22] (Eterna round: R97, puzzle: Exclusion 2) | 38.8 nM | 18.2 nM | – | – | – | – |
| GAUCGACAUGAGGAUCACCCAUGUCAGGAUAUCGUCACUGGAGCCUCGGCUCCAGUGACGAGAAGGGAUAUAAU [E1/16-A2] (Eterna round: R97, puzzle: Exclusion 1) | 31.6 nM | 32 nM | – | – | – | – |
| GAUGAGGUAGGAUAUACGAGAAGAUAGGGUAGAUAGAUAACACAUGAGGAUCACCCAUGUAGAAGGACCAGUAG [Mat - Exclusion 2 - Mod of my Tesla design - D72] (puzzle: Exclusion 2) | – | – | 32.5 nM | – | – | – |
| GAUGCUUCGGCAUCUACAAGCUUUUUGCUCGUCUUAUUAACAUGAGGAUCACCCAUGUCAAAGAGACCUCAUGUAUU [Sensor v3 - turn-off variant 2 - 4] (puzzle: Sensor v3, turn-off variant 2) | – | – | 18.9 nM | 314 nM | 381 nM | – |
| GAUGGCUAAGGAUAUACAUAGAAGAAUUGAACUUGGAUUAUACAUGAGGAUCACCCAUGUAGAAGGUAGUCAUC [ExGluten 3 - Jieux - Exclusion 2] (Eterna round: R97, puzzle: Exclusion 2) | 82.9 nM | 24.6 nM | – | – | – | – |
| GAUGUGGGUUUCCGGAGUAACAUGAGGAUCACCCAUGUAGAAGUUGGAGGGAUCAAGCUUUUUGGUCGUCACACGUG [JR_SV3TOV1_Sub053] (puzzle: Sensor v3, turn-off variant 1) | – | – | 227 nM | 213 nM | 306 nM | – |
| GAUUAACAUGAGGAUCACCCAUGUGAGGAUAUGGACUUGCCCACUUACCCUUUAGAGUCUAGAAGGCGCAUCUC [1986#30] (Eterna round: R97, puzzle: Exclusion 1) | 28.7 nM | 20.8 nM | – | – | – | – |
| GAUUAACAUGAGGAUCACCCAUGUGAGGAUAUUGACUUGCUCACUUUCCCAUUAGAGUCGAGAAGGCGCAUCUG [1986#19] (Eterna round: R97, puzzle: Exclusion 1) | 34.9 nM | 60.5 nM | – | – | – | – |
| GAUUACUGCAAGCUUAGGGACAUGAGGAUCACCCAUGUUCGUCUUAUUGAUCUAGGUACGCUGACGUACCUAGAUCU [JL-sv1-2.29 Brourd mod] (puzzle: Sensor v3, turn-off variant 1) | – | – | 19.4 nM | 14.7 nM | 13.8 nM | – |
| GAUUAGCAAGUGAGAUCCCACAUGAGGAUCACCCAUGUGCUCGUCUUAUAAGGUACUGUGACGAAAGUCACGGUACC [Mat - Sensor, turn-off var - Eli Mod - D6] (Eterna round: R97, puzzle: Sensor, turn-off variant 1) | 424 nM | 226 nM | – | – | – | – |
| GAUUAUGCGAGCUUUAGGGACAUGAGGAUCACCCAUGUUCGUCUUAUUAAUCUAGGUACACUGACAUACCUAAAUCU [JMF 64] (puzzle: Sensor v3, turn-off variant 1) | – | – | 30.5 nM | 21.3 nM | 21 nM | – |
| GAUUAUGCGAGCUUUAGGGACAUGAGGAUCACCCAUGUUCGUCUUAUUAGUCUAAAUGCACUGACAUACCUAAAUCU [JMF 73] (puzzle: Sensor v3, turn-off variant 1) | – | – | 15.3 nM | 12.9 nM | 13.9 nM | – |
| GAUUAUGCGAGCUUUAGGGACAUGAGGAUCACCCAUGUUCGUCUUAUUAGUCUAGGUGCACUAACAUACCUAAAUCU [JMF 35] (puzzle: Sensor v3, turn-off variant 1) | – | – | 36 nM | 20.7 nM | 21.3 nM | – |
| GAUUAUGCGAGCUUUAGGGACAUGAGGAUCACCCAUGUUCGUCUUAUUAGUCUGAGUGCACUGACAUACCUAAAUCU [JMF 85] (puzzle: Sensor v3, turn-off variant 1) | – | – | 22 nM | 15.4 nM | 16.7 nM | – |
| GAUUAUGCGAGCUUUAGGGACAUGAGGAUCACCCAUGUUCGUCUUAUUGAUCUGGAUGCACUAACAUACCUAAAUCU [JMF 27] (puzzle: Sensor v3, turn-off variant 1) | – | – | 64.6 nM | 51.1 nM | 49.3 nM | – |
| GAUUAUGCGAGCUUUAGGGACAUGAGGAUCACCCAUGUUCGUCUUAUUGGUCUAGAUACACUGACAUACCUAAAUCU [JMF 58] (puzzle: Sensor v3, turn-off variant 1) | – | – | 19.1 nM | 14.8 nM | 14 nM | – |
| GAUUAUGCGAGCUUUAGGGACAUGAGGAUCACCCAUGUUCGUCUUAUUGGUCUGGAUACGCUGACAUACCUAAAUCU [JMF 97] (puzzle: Sensor v3, turn-off variant 1) | – | – | 28.4 nM | 18.6 nM | 20.9 nM | – |
| GAUUAUGCGAGCUUUAGGGACAUGAGGAUCACCCAUGUUCGUCUUGUUGAUCUAGGUGCACUGACAUACCUAAAUCU [JMF 88] (puzzle: Sensor v3, turn-off variant 1) | – | – | 27.7 nM | 20.9 nM | 22.4 nM | – |
| GAUUGACAUGAGGAUCACCCAUGUGAGGAUAUCGGCCGGACCGUGCUGGCUUCCGUCGCGAGAAGGCGCAUAGG [Exclusion 1 V41] (puzzle: Exclusion 1) | – | – | 35.5 nM | 78.2 nM | 38.9 nM | – |
| GAUUGACAUGAGGAUCACCCAUGUGAGGAUAUCGGCUGGUACGUGUUGGCUUGCCUCUCGAGAAGGCGCAUAGG [Exclusion 1 V55] (puzzle: Exclusion 1) | – | – | 38.5 nM | 140 nM | 63.1 nM | – |
| GAUUGAGAGCAGGAUAUAUUCCUGAUGUAUGAAGUAGAAGGGCUCACAUGAGGAUCACCCAUGUGAUCCUGAAU [JL Dibri mod 17 mod] (Eterna round: R97, puzzle: Exclusion 6) | 15.3 nM | 14.3 nM | – | – | – | – |
| GCAACGCUGAAAGGAUAUGUUGACCGAGAGACAACAGAAGGUUCCGCACAUGAGGAUCACCCAUGUGAUCGUAAAAGAGCAAGC [Eternabot solution 18] (Eterna round: R96, puzzle: Exclusion NG 1) | 99.5 nM | 48.1 nM | – | – | – | 35.9 nM |
| GCAAGCUUAAUCACUAUGAACAUGAGGAUCACCCAUGUAUAAGGUAAUACUUUUGGGCCCUUUAUUACUCGUCUUAU [JR_STOV1_Sub030] (Eterna round: R97, puzzle: Sensor, turn-off variant 1) | 61.3 nM | 80.3 nM | – | – | – | – |
| GCAAGCUUAAUCUGUAUGAACAUGAGGAUCACCCAUGUAUAAGGUAAUUCUUUUGGGUUUUUUAUUGCUCGUCUUAU [JR_STOV1_Sub025] (Eterna round: R97, puzzle: Sensor, turn-off variant 1) | 189 nM | 210 nM | – | – | – | – |
| GCAAGCUUUAUCACUAUGAACAUGAGGAUCACCCAUGUAUAAGGUAUUACUUUUGGGCCCUUUAGUGCUCGUCUUAU [JR_STOV1_Sub032] (Eterna round: R97, puzzle: Sensor, turn-off variant 1) | 29.8 nM | 29.3 nM | – | – | – | – |
| GCAAGCUUUUUCAAUAAGAACAUGAGGAUCACCCAUGUUUAAGGUAUUACUUUUGGGCUCUUUAGUGCUCGUCUUAU [JR_STOV1_Sub035] (Eterna round: R97, puzzle: Sensor, turn-off variant 1) | 17.9 nM | 18.2 nM | – | – | – | – |
| GCACAGGCAGGAUAUACAUGAGGAUCACCCAUGUGAUCCCUUAGGUACAAAAGUACUAGUAGAAGGGCCUGUGC [Omei Ex3 Model Bachelor's Dilema v49] (Eterna round: R97, puzzle: Exclusion 3) | 403 nM | 1040 nM | – | – | – | – |
| GCACCACGAGGAUAUACAUGAGGAUCACCCAUGUGAUCAGCAGUCCUCGGACUGCAAUGUAGAAGGCGUGGUGC [E3/1-A1] (Eterna round: R97, puzzle: Exclusion 3) | 24.3 nM | 776 nM | – | – | – | – |
| GCACGAAGUGUAGGAUAUCUGUGCGAUUAGCUCAGAGAAGGACACAUGAGGAUCACCCAUGUUUUCCGCGGAAGCAAUACGUGC [Eli exng1 - 058] (Eterna round: R96, puzzle: Exclusion NG 1) | 26.5 nM | 17.9 nM | – | – | – | 13.2 nM |
